Experimental findings from paper PMC6907008 are described below.

For series [1], the target named is T1, HisZea (Lmo2686) (Listeria monocytogenes EGD-e) (UniProt Q8Y3Z3).
T1 sequence: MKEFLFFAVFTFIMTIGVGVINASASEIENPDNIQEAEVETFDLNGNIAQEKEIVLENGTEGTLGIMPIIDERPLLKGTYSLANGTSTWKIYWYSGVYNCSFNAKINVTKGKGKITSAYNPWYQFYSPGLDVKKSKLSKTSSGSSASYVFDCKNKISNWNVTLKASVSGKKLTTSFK
The series is described as follows: EMSA. The conditions noted are these: EMSA: 50 mM Tris pH 8.0, 300 mM NaCl, 10% glycerol, 50 ug/mL BSA, 1 ug yeast tRNA, 20 min room temperature; pull-down: 25 mM Tris pH 8.0, 150 mM KCl, 5 mM …. A general note: A gel shift assay detects complexes by their altered migration in electrophoresis.

Series [2] has as its target T1, HisZea (Lmo2686) (Listeria monocytogenes EGD-e). The series is described as follows: competition. The conditions noted are these: EMSA: 50 mM Tris pH 8.0, 300 mM NaCl, 10% glycerol, 50 ug/mL BSA, 1 ug yeast tRNA, 20 min room temperature; pull-down: 25 mM Tris pH 8.0, 150 mM KCl, 5 mM ….

As to “GGGUGUAAAAUGCAGCUUGAGUAAAAUGAAUGAGUGUGUUGUUUACCCCCAGAUUUAAUUCUGUGGUAUAUCGCGUAACCGGCGGCUGCUAUGGUGAUGGUAUAUGAAGGUAAACUGCCCUGAUUUGGUUUUACGUCACGUUUGUUUUAUAC [rli92]”, the binding entry in series [1] and in series [2] was “binds” in each case.

For “GGAGUAGAAAAGACCAAUGUGGGUUCUUUUUUAUUUUGUCUUAAUAACUCUAAACCACAGACAAAUAUAAAUUGGAAAUCAACGUAAUAAUCGUAUUUCCUAUUACAAUAAUCGAGAUAUUGUCACACCCUGAAAUAUAAUUGUAAUGCAAUUAACCUAUAGAUGAAAAACUGU [rli143]”, the binding result in series [1] and in series [2] was “binds” throughout.
